Laboratory results reported in US20030166571A1 (SYNVAX, published 2003).
Square brackets hold non-standard residues; d marks the D form. * marks the point of attachment. Heptanoyl = CCCCCCC(=O)*; Hexanoyl = CCCCCC(=O)*; Propionyl = CCC(=O)*; Butyryl = CCCC(=O)*

Tests used:
[1] = target: T1, human ORL-1 receptor (opioid receptor like 1) (human, UniProt P41146 1-370); assay: cell-based or functional assay
[2] = target: T1, human ORL-1 receptor (opioid receptor …); assay: [3H]nociceptin displacement at ORL1
[3] = target: T1, human ORL-1 receptor (opioid receptor …); assay: binding assay at ORL1 (taken as [3H]nociceptin displacement as in Table 1)

T1 sequence (P41146 whole entry): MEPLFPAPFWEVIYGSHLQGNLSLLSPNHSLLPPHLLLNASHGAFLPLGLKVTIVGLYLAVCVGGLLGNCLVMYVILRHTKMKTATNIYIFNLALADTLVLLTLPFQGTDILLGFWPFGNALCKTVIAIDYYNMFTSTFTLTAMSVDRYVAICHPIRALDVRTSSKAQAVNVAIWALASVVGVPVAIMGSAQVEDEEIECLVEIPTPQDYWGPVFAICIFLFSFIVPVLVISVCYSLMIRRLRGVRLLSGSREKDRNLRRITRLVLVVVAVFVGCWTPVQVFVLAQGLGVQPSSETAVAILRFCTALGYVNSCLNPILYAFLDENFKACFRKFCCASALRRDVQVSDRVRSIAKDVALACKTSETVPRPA

| Binder | [^35S]GTPγS Binding EC50 [1] | [^35S]GTPγS Binding Percent Stimulation [1] | IC50 [2] | IC50 [3] |
| --- | --- | --- | --- | --- |
| Butyryl-RYYRWR-NH2 (SMILES CCCC(=O)N[C@@H](CCCNC(=N)N)C(=O)N[C@@H](Cc1ccc(O)cc1)C(=O)N[C@@H](Cc1ccc(O)cc1)C(=O)N[C@@H](CCCNC(=N)N)C(=O)N[C@@H](Cc1c[nH]c2ccccc12)C(=O)N[C@@H](CCCNC(=N)N)C(N)=O) [IV-15-A Butryl-RYYRWR-NH2] | 35.3 nM | 63% | 4.3 nM |  |
| Ac-RYYRWR-NH2 (also called parent peptide) [Ac-RYYRWR-NH2] | 1.2 nM | 100% | 0.72 nM |  |
| Hexanoyl-RYYRWA-NH2 (SMILES CCCCCC(=O)N[C@@H](CCCNC(=N)N)C(=O)N[C@@H](Cc1ccc(O)cc1)C(=O)N[C@@H](Cc1ccc(O)cc1)C(=O)N[C@@H](CCCNC(=N)N)C(=O)N[C@@H](Cc1c[nH]c2ccccc12)C(=O)N[C@@H](C)C(N)=O) [IV-43-B Hexanoyl-RYYRWA-NH2] |  |  |  | 311 nM |
| Hexanoyl-RYYRAR-NH2 (SMILES CCCCCC(=O)N[C@@H](CCCNC(=N)N)C(=O)N[C@@H](Cc1ccc(O)cc1)C(=O)N[C@@H](Cc1ccc(O)cc1)C(=O)N[C@@H](CCCNC(=N)N)C(=O)N[C@@H](C)C(=O)N[C@@H](CCCNC(=N)N)C(N)=O) [IV-41-B Hexanoyl-RYYRAR-NH2] |  |  |  | 710 nM |
| Hexanoyl-RYYAWR-NH2 (SMILES CCCCCC(=O)N[C@@H](CCCNC(=N)N)C(=O)N[C@@H](Cc1ccc(O)cc1)C(=O)N[C@@H](Cc1ccc(O)cc1)C(=O)N[C@@H](C)C(=O)N[C@@H](Cc1c[nH]c2ccccc12)C(=O)N[C@@H](CCCNC(=N)N)C(N)=O) [IV-39-B Hexanoyl-RYYAWR-NH2] |  |  |  | 1000 nM |
| Hexanoyl-RYARWR-NH2 (SMILES CCCCCC(=O)N[C@@H](CCCNC(=N)N)C(=O)N[C@@H](Cc1ccc(O)cc1)C(=O)N[C@@H](C)C(=O)N[C@@H](CCCNC(=N)N)C(=O)N[C@@H](Cc1c[nH]c2ccccc12)C(=O)N[C@@H](CCCNC(=N)N)C(N)=O) [IV-37-B Hexanoyl-RYARWR-NH2] |  |  |  | 79 nM |
| Ac-R[dY]Y[dR]WR-NH2 (It is not clear from the print which residues the (D) marks belong to, nor whether the last Arg is missing on purpose) [IV-12-B Ac-RY(D)YR(D)WNH2] | > 10000 nM | < 10% | 1140 nM |  |
| Hexanoyl-RYYRWR-NH2 (SMILES CCCCCC(=O)N[C@@H](CCCNC(=N)N)C(=O)N[C@@H](Cc1ccc(O)cc1)C(=O)N[C@@H](Cc1ccc(O)cc1)C(=O)N[C@@H](CCCNC(=N)N)C(=O)N[C@@H](Cc1c[nH]c2ccccc12)C(=O)N[C@@H](CCCNC(=N)N)C(N)=O) [IV-17-C Hexanoyl-RYYRWR-NH2] |  | 18% | 2.6 nM |  |
| Heptanoyl-RYYRWR-NH2 (SMILES CCCCCCC(=O)N[C@@H](CCCNC(=N)N)C(=O)N[C@@H](Cc1ccc(O)cc1)C(=O)N[C@@H](Cc1ccc(O)cc1)C(=O)N[C@@H](CCCNC(=N)N)C(=O)N[C@@H](Cc1c[nH]c2ccccc12)C(=O)N[C@@H](CCCNC(=N)N)C(N)=O, see recheck) [IV-18-C Heptanoyl-RYYRWR-NH2] | 16.9 nM | 54% | 2.6 nM |  |
| Propionyl-RYYRWR-NH2 (SMILES CCC(=O)N[C@@H](CCCNC(=N)N)C(=O)N[C@@H](Cc1ccc(O)cc1)C(=O)N[C@@H](Cc1ccc(O)cc1)C(=O)N[C@@H](CCCNC(=N)N)C(=O)N[C@@H](Cc1c[nH]c2ccccc12)C(=O)N[C@@H](CCCNC(=N)N)C(N)=O, see recheck) [IV-16-C Propionyl-RYYRWR-NH2] | 22.3 nM | 82% | 1.2 nM |  |
